Broadly, the Kd is a measure of binding affinity in units of concentration. Read a low Kd as higher affinity.

Data set [1] has as its target T1, RPA (heterotrimer RPA1/RPA2/RPA3) (Homo sapiens, UniProt P27694;P15927;P35244 1-616;1-270;1-121). As to the kind of experiment: smFRET.
For data set [2], the target named is T1, RPA (heterotrimer RPA1/RPA2/RPA3). The data set is described as follows: fluorescence polarization. In general terms: Polarisation of emitted light reports the rotation of a fluorescent probe.
Data set [3] shares this target. The data set is described as follows: smFRET. The source holds these as a separate data set.
The target is the same in data set [4]. As to the kind of experiment: smFRET. This is another data set of the same source.
Data set [5] shares this target. The data set is described as follows: gel filtration.

T1 sequence (P27694 whole entry, chain 1 of 3): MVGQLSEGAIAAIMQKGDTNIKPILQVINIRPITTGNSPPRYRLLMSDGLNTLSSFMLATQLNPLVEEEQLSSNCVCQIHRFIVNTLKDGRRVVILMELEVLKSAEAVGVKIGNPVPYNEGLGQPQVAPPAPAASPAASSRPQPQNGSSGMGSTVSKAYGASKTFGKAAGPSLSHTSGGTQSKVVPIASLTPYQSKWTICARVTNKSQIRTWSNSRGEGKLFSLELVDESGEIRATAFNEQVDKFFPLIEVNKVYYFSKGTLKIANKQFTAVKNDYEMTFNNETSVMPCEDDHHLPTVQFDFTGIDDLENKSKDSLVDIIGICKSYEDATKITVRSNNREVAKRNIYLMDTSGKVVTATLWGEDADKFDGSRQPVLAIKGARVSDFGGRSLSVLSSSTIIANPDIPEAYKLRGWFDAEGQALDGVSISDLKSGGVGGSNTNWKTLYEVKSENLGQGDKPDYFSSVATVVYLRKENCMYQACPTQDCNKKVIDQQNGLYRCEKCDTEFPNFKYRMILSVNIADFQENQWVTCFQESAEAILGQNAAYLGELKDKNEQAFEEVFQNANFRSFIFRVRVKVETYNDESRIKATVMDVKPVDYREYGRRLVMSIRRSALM
T1 sequence (P15927 whole entry, chain 2 of 3): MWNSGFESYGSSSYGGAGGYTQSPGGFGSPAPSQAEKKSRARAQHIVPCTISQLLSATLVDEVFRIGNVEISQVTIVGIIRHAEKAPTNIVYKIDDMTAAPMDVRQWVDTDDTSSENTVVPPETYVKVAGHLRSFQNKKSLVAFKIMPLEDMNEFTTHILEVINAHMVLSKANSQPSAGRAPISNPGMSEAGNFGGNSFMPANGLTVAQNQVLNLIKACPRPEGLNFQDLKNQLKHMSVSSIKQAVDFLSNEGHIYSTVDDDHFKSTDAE
T1 sequence (P35244 whole entry, chain 3 of 3): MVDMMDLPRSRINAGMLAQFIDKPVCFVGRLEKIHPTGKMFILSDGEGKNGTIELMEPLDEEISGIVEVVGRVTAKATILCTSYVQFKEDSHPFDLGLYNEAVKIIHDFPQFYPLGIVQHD

B1: 3G4L5 (mixed)
DNA 1: GCGTGGCACCGGTAATAGGAAATAGGAGATTGGGTTTTTGGGTTTTTGGGTTTTTGGGTT
DNA 2: TCCTATTTCCTATTACCGGTGCCACGC
B1: the binding result in data set [1] is listed as “binds”.

B2: 3G4L3 (FP substrate) (mixed)
DNA 1: GCGTGGCACCGGTAATAGGAAATAGGAGATTGGGTTAGGGTTAGGGTTAGGGTT
DNA 2: TCCTATTTCCTATTACCGGTGCCACGC
In data set [2], B2 had a Kd of 6.3 nM.

B3: 27bp4nt (mixed)
DNA 1: GCGTGGCACCGGTAATAGGAAATAGGAGATT
DNA 2: TCCTATTTCCTATTACCGGTGCCACGC
Take B3: the binding result in data set [3] was “binds”.

B4: 3G4L4 (mixed)
DNA 1: GCGTGGCACCGGTAATAGGAAATAGGAGATTGGGTTTTGGGTTTTGGGTTTTGGGTT
DNA 2: TCCTATTTCCTATTACCGGTGCCACGC
In the case of B4, the binding result in data set [1] is “binds”.

B5: 3G4L121* (mixed)
DNA 1: GGGTGGGTAGGGTGGGATGTATGACAAGGAAGG
DNA 2: CCTTCCTTGTCATAC
Take B5: in data set [4], the binding result was “binds”.

B6: 4G4 (mixed)
DNA 1: GCGTGGCACCGGTAATAGGAAATAGGAGATTGGGGTGTGGGGACAGGGGTGTGGGGTT
DNA 2: TCCTATTTCCTATTACCGGTGCCACGC
In the case of B6, the binding result in data set [5] was “binds”.

B7: 3G4L1 (FP substrate) (mixed)
DNA 1: GCGTGGCACCGGTAATAGGAAATAGGAGATTGGGTGGGTGGGTGGGTT
DNA 2: TCCTATTTCCTATTACCGGTGCCACGC
As for B7, in data set [2], the Kd was determined as 8.6 nM.

(Values after PMC8169993.)
